This passage reports Kd, koff and kon results from article PMC1933402 (The EMBO Journal, 2007).

For data set [1], the target named is T1, His-tagged WT APPL1 (5−419) (human, UniProt Q9UKG1 5-419).
T1 sequence (looked up): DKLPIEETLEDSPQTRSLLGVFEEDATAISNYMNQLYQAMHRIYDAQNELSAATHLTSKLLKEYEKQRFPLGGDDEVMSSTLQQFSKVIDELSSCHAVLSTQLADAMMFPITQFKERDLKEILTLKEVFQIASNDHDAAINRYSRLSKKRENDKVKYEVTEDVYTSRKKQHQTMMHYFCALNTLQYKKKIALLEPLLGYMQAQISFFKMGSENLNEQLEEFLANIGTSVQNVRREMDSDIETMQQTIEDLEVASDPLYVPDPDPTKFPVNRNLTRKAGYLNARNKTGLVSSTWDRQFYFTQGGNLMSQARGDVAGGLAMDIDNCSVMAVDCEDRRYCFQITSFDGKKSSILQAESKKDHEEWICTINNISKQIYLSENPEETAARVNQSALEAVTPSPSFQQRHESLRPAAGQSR
Put plainly: SPR. In general terms: SPR reads the build-up and loss of mass on a sensor chip optically.

The data set “AUC” concerns the molecule itself. Put plainly: AUC.

B1: full-length Rab5-Q79L coupled to the SPR biosensor chip (natural protein, human, UniProt P20339-1 1-215, looked up)
chain: MASRGATRPNGPNTGNKICQFKLVLLGESAVGKSSLVLRFVKGQFHEFQESTIGAAFLTQTVCLDDTTVKFEIWDTAGLERYHSLAPMYYRGAQAAIVVYDITNEESFARAKNWVKELQRQASPNIVIALSGNKADLANKRAVDFQEAQSYADDNSLLFMETSAKTSMNVNEIFMAIAKKLPKNEPQNPGANSARGRGVDLTEPTQPTRNQCCSN
On to B1, for which, in data set [1], binding was characterised by a dissociation constant (Kd) of 900 ± 700 nM, the koff was 0.0012 s⁻¹ and the kon was determined as 1300 M⁻¹ s⁻¹.

B2: APPL1 BAR domain (residues 5−265), His tag removed (domain or fragment, human)
chain: GSHMDKLPIEETLEDSPQTRSLLGVFEEDATAISNYMNQLYQAMHRIYDAQNELSAATHLTSKLLKEYEKQRFPLGGDDEVMSSTLQQFSKVIDELSSCHAVLSTQLADAMMFPITQFKERDLKEILTLKEVFQIASNDHDAAINRYSRLSKKRENDKVKYEVTEDVYTSRKKQHQTMMHYFCALNTLQYKKKIALLEPLLGYMQAQISFFKMGSENLNEQLEEFLANIGTSVQNVRREMDSDIETMQQTIEDLEVASDPLYVPD
In the data set “AUC”, B2 returned a dissociation constant (Kd) of 130 nM.

The term Kd denotes the free concentration of one partner at which half of the binding sites on the other are occupied at equilibrium, for simple one-to-one binding. One may read the koff as the first-order rate constant of dissociation. The term kon denotes a measure of how fast the partners come together.
